The text below walks through data of patent US20240270874A1.

What all share (assay): cell-based or functional assay
In assay [1] the target is human KLB&FGFR1c complex on cells (human) (UniProt Q86Z14).
The target of assay [2] is human KLB & human FGFR3c on L6 cells (human) (UniProt Q86Z14).
Assay [3] concerns the target human KLB & human FGFR4 on L6 cells (human) (UniProt Q86Z14).
For assay [4], the target named is human FGFR1c on cells (human) (UniProt P11362).
Sequence of human FGFR1c on cells (human) (P11362 22-822): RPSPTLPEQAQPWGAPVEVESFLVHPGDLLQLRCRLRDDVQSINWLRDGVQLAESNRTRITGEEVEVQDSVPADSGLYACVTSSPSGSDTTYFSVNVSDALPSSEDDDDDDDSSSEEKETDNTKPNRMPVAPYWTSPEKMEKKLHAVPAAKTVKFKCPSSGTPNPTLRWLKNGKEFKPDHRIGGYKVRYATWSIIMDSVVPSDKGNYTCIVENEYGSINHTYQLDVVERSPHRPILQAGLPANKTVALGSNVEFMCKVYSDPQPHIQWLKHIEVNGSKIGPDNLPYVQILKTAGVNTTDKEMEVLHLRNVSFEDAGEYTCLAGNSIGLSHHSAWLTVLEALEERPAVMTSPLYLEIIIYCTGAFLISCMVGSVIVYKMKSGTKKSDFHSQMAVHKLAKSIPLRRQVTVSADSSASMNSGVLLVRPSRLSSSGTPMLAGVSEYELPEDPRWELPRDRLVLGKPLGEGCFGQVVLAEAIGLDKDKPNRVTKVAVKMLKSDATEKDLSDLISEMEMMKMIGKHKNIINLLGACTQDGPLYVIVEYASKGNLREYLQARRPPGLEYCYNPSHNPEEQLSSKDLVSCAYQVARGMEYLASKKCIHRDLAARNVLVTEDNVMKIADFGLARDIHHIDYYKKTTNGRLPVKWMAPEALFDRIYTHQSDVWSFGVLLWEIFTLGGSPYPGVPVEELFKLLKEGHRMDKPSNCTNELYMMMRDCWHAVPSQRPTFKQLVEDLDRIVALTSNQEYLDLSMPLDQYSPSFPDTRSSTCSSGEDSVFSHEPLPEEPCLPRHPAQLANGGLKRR

Sequence of human KLB&FGFR1c complex on cells (human) (Q86Z14 whole entry, chain 1 of 2): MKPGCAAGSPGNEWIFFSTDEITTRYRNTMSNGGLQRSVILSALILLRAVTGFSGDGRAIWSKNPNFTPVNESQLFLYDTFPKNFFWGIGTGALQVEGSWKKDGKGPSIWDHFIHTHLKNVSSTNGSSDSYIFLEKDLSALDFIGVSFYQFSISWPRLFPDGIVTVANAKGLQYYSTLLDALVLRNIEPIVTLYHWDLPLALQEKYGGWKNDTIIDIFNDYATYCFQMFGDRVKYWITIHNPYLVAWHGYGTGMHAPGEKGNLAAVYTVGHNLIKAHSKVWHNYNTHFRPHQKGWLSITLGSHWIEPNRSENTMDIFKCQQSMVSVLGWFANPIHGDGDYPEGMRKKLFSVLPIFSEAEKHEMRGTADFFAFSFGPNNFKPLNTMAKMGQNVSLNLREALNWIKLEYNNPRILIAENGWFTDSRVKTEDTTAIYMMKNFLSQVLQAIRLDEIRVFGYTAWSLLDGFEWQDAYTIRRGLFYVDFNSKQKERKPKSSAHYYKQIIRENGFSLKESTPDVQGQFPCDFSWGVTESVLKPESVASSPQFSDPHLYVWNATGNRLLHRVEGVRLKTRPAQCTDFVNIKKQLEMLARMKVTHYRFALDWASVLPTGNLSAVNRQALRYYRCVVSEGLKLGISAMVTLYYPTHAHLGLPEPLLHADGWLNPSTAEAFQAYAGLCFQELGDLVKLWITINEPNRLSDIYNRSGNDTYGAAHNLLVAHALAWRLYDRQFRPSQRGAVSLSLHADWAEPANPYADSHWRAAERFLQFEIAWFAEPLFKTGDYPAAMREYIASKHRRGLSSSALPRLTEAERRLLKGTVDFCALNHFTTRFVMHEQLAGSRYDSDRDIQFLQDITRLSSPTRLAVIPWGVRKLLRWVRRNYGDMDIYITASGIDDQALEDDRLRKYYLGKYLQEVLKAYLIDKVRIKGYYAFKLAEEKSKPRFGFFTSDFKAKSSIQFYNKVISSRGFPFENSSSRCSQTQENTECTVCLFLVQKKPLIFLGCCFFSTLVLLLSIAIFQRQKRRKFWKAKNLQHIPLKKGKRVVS
Sequence of human KLB&FGFR1c complex on cells (human) (P11362 22-822, chain 2 of 2, further chain): as the sequence (P11362 22-822) above
Sequence of human KLB & human FGFR4 on L6 cells (human) (Q86Z14 whole entry, chain 1 of 2): as the sequence (Q86Z14 whole entry, chain 1 of 2) above
Sequence of human KLB & human FGFR4 on L6 cells (human) (P22455 22-802, chain 2 of 2, further chain): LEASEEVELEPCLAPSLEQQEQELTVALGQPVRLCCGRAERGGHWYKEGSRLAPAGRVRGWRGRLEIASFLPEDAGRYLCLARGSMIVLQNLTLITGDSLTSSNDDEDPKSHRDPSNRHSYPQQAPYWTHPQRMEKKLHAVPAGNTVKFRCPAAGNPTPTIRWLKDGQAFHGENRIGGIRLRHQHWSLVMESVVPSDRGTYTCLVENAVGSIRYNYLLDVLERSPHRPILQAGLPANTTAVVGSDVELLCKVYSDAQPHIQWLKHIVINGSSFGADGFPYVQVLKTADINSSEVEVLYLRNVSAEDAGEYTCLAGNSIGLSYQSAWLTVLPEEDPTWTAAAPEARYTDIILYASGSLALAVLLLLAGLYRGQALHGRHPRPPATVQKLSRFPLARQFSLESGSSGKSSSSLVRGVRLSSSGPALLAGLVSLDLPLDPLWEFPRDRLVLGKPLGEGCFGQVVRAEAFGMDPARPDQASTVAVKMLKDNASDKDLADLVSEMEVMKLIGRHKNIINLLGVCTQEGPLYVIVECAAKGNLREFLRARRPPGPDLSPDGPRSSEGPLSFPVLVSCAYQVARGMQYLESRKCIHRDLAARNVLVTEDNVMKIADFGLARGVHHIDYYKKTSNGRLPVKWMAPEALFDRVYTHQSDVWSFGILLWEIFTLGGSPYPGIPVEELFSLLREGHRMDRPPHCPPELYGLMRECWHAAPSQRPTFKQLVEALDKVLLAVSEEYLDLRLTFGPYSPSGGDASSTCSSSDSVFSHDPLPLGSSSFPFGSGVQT
Sequence of human KLB & human FGFR3c on L6 cells (human) (Q86Z14 whole entry, chain 1 of 2): as the sequence (Q86Z14 whole entry, chain 1 of 2) above
Sequence of human KLB & human FGFR3c on L6 cells (human) (P22607 23-806, chain 2 of 2, further chain): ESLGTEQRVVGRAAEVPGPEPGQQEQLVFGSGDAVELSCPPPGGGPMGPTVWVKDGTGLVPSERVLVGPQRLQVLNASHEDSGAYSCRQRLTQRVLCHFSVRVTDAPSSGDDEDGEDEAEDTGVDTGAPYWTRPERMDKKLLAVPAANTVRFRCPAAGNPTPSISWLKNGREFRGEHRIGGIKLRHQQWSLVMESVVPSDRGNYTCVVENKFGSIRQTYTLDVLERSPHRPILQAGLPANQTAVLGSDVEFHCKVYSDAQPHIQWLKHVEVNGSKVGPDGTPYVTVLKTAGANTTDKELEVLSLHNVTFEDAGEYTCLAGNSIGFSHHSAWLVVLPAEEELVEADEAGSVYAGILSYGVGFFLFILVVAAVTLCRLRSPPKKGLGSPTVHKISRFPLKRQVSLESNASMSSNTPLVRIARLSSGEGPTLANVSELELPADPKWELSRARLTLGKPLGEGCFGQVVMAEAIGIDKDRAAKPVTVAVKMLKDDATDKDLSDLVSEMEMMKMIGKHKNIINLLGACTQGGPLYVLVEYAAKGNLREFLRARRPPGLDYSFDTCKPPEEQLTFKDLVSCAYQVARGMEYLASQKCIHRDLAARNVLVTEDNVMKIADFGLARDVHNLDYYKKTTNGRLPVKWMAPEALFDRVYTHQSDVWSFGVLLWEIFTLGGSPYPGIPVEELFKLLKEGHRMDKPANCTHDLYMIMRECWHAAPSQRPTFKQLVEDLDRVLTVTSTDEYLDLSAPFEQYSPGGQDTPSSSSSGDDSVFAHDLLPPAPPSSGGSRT

In the case of MK3655 (antibody), in assay [1], the Activation fold, GAL4-Elk1 luciferase reporter in CHOK1-hKLB&hFGFR1c cells is 5.62 fold; the Activation fold, SRE-Luc2P reporter in HEK293T-hKLB&hFGFR1c cells was 1.65 fold; the EC50 (nM), GAL4-Elk1 luciferase reporter in CHOK1-hKLB&hFGFR1c cells worked out at 0.64 nM; the EC50 (nM), SRE-Luc2P reporter in HEK293T-hKLB&hFGFR1c cells was found to be 5.06 nM.
The substance AKR001 (ligand) had an Activation fold, pERK/total ERK in L6-hKLB&hFGFR3c cells in assay [2] of 10.2 fold. The substance further yielded an Activation fold, pERK/total ERK in L6-hKLB&hFGFR4 cells in assay [3] of 2.11 fold.
“FGF2 (Sino Biological, 10014-HNAE) (from UniProt P09038 143-288) (ligand)” yielded an Activation fold, SRE-Luc2P reporter in HEK293-hFGFR1c cells in assay [4] of 11.6 fold.
